Test results published in patent US20240132603A1 (HARBOUR BIOMED US, published 2024).
Numbering of substitutions follows the chain as printed. Names and notes keep the numbering of the source.

B1: PR004128 (antibody, human IgG1, kappa)
heavy: not shown
light: DIVMTQAAPSVPVTPGESVSISCRSSKSLLHSNGKIYLYWFLQRPGQSPQLLIYRMSNLASGVPDRFSGSGSGTAFTLRISRVEAEDVGVYYCMQHLEYPLTFGAGTKLEIKRTVAAPSVFIFPPSDEQLKSGTASVVCLLNNFYPREAKVQWKVDNALQSGNSQESVTEQDSKDSTYSLSSTLTLSKADYEKHKVYACEVTHQGLSSPVTKSFNRGEC
notes: chimeric, human IgG1 constant region; also called RP004128; PRO4128
B2: PR004131 (antibody, human IgG1, kappa)
heavy: not shown
light: B1 light with S26N, K35N, I36T
notes: chimeric, human IgG1 constant region
B3: PR004121 (antibody, human IgG1, kappa, V domains shown)
VH: EVQLVESGGGLVQPKGSLKLSCAASGFTFNTYAMNWVRQAPGKGLEWVARIRSKSNNYATYYADSVKDRFTISRDDSQNMLYLQMNNLKTEDTAMYYCVRGKENGNYYAMDFWGQGTSVTVSS
VL: DIVITQAAPSVPVTPGESVSISCRSSKSLLHSNGNTYLYWFLQRPGQSPQLLIYRMSNLASGVPDRFSGSGSGTAFTLRISRVEAEDVGVYYCMQHLEYPFTFGGGTKLEMKR
notes: as for B2
B4: PR004666 (antibody, human IgG1, kappa)
heavy: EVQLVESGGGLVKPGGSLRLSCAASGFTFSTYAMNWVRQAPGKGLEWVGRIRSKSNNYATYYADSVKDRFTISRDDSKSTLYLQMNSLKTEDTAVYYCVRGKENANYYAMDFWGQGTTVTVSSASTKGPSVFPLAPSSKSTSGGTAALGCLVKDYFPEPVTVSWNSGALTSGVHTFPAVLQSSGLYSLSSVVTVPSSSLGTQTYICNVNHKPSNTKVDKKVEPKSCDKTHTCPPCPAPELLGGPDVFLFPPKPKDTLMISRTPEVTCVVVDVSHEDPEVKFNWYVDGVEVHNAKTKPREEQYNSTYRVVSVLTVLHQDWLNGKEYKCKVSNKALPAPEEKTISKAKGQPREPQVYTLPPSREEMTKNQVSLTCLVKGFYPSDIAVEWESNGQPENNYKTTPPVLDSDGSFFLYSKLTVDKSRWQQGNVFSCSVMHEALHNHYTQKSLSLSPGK
light: DIVMTQSPLSLPVTLGQPASISCRSSKSLLHSNAKIYLYWFQQRPGQSPRLLIYRMSNLASGVPDRFSGSGSGTDFTLKISRVEAEDVGVYYCMQHLEYPLTFGQGTKLEIKRTVAAPSVFIFPPSDEQLKSGTASVVCLLNNFYPREAKVQWKVDNALQSGNSQESVTEQDSKDSTYSLSSTLTLSKADYEKHKVYACEVTHQGLSSPVTKSFNRGEC
notes: PTM site-removed humanized variant of PR004128, IgG1 with DE mutation
B5: PR005750 (Fab, V domains shown)
VH: EVQLVESGGGLVKPGGSLRLSCAASGFTFSTYAMNWVRQAPGKGLEWVGRIRSKSNNYATYYADSVKDRFTISRDDSKSTLYLQMNSLKTEDTAVYYCVRGKENANYYAMDFWGQGTTVTVSS
VL: DIVMTQSPLSLPVTLGQPASISCRSSKSLLHSNAKIYLYWFQQRPGQSPRLLIYRMSNLASGVPDRFSGSGSGTDFTLKISRVEAEDVGVYYCMQHLEYPLTFGQGTKLEIKR
notes: Fab form of the same variable region as PR004666
B6: PR005752 (Fab, V domains shown)
VH: B5 VH with N57Y, N104H, A105G
VL: B5 VL
B7: PR005763 (Fab, V domains shown)
VH: B5 VH with N57Y, N104H, A105G, N106K
VL: B5 VL
B8: PR005753 (Fab, V domains shown)
VH: B5 VH with N104I, A105G
VL: B5 VL
B9: PR005751 (Fab, V domains shown)
VH: B5 VH with N104H, A105G
VL: B5 VL
B10: PR005754 (Fab, V domains shown)
VH: B5 VH with N57Y, N104I, A105G
VL: B5 VL
B11: PR005787 (Fab, V domains shown)
VH: B5 VH with N57Y, N104I, A105G, N106K
VL: B5 VL
B12: PR004252 (antibody, human IgG1, kappa)
heavy: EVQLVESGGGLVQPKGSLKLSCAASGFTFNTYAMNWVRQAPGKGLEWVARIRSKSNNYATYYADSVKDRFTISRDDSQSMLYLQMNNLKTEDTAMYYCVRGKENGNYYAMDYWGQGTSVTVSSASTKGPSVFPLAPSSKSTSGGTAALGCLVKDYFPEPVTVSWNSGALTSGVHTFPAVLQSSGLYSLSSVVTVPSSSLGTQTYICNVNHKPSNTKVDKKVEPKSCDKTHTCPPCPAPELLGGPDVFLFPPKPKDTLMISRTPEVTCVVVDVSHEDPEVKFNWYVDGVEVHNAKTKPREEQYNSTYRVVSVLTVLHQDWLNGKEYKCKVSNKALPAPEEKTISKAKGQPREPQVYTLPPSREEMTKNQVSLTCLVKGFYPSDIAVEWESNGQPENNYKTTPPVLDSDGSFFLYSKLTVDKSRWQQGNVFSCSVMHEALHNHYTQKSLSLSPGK
light: B1 light with S26N, K35N, I36T
notes: PR004131 with S239D and I332E (DE) in the IgG1 constant region
B13: PR004251 (antibody, human IgG1, kappa)
heavy: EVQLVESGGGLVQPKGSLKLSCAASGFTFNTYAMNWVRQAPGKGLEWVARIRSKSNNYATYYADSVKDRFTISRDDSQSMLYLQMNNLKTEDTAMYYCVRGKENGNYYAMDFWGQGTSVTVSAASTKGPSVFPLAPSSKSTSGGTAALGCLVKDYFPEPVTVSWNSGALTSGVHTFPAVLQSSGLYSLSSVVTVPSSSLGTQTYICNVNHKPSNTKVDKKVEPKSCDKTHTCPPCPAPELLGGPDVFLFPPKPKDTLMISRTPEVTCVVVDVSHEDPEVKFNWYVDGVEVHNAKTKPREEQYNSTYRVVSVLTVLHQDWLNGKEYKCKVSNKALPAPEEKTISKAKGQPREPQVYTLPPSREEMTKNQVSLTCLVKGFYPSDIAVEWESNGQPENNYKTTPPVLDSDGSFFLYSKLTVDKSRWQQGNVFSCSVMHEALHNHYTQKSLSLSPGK
light: B1 light
notes: PR004128 with S239D and I332E (DE) in the IgG1 constant region
B14: PR004249 (antibody, human IgG1, kappa)
heavy: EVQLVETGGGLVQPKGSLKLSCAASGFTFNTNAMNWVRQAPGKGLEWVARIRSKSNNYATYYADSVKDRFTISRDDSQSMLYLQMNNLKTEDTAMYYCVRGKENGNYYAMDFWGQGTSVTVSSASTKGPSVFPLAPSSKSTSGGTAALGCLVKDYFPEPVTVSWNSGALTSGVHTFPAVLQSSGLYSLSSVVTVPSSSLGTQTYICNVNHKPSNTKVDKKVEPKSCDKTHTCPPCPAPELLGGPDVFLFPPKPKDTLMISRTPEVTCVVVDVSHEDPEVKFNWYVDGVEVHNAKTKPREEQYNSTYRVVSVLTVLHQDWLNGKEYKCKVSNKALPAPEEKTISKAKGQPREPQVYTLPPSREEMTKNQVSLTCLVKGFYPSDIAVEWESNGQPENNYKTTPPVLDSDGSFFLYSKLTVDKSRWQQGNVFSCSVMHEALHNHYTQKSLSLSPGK
light: B1 light with K35N, I36T, I111L
notes: PR004122 with S239D and I332E (DE) in the IgG1 constant region

Molecular target: T1, human CCR8 (human, UniProt P51685 1-355)
T1 construct: whole, on cells; construct used for the overexpressing cell lines is not described; also called hCCR8
Test: FACS, CHO-K1-hCCR8 cells
Description: (§1) Cells overexpressing human CCR8 were digested with pancreatin, counted and resuspended to a cell density of 1E6 cells/mL. The cell suspension was added to a 96-well V-bottom plate at 100 μL/well and centrifuged at 300 g for 5 min, and the supernatant was discarded. The anti-CCR8 antibodies provided herein was used as a primary antibody and diluted in a 5-fold gradient with an FACS buffer (DPBS containing 2% FBS) from 200 nM. The diluted primary antibody was added at 100 μL/well to resuspend the cells, and the mixture was incubated at 4° C. for 1 h. The plate was washed twice with DPBS and centrifuged at 300×g for 5 min, and the supernatant was discarded. The secondary antibody diluted in a 1:1000 ratio with an FACS buffer was added at 100 μL/well to suspend the cells, and the mixture was incubated at 4° C. for 40 min. The plate was washed twice with DPBS and centrifuged at 300×g for 5 min, and the supernatant was discarded. DPBS was added at 200 μL/well to suspend the cells, and the mixture was loaded on an FACS machine for analysis.

T1 sequence (P51685 whole entry): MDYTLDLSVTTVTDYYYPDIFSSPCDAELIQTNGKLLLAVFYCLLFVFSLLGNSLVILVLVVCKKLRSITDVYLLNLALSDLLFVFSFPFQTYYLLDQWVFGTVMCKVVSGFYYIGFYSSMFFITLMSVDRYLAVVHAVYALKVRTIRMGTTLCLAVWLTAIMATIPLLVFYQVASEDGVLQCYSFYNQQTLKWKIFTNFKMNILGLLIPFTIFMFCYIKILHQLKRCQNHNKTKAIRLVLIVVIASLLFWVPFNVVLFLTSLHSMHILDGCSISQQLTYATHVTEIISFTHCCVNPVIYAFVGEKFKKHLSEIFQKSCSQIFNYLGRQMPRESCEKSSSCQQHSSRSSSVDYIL

Binder | EC50 [nM]
B1 | 0.91

Molecular target: T1, human CCR8
Test: FACS competition on HEK293-hCCR8 cells against a biotin-labelled anti-CCR8 antibody at its EC80; the labelled antibody of this panel is not named on the sheet
Description: (§2) The antibody was conjugated with Sulfo-NHS-LC-Biotin at a molar ratio of 5:1 (1 mol antibody was added to 5 mol Sulfo-NHS-LC-Biotin) with reference to the product instructions (ThermoFisher, Cat No. A39257) and incubated on ice for 2 h. The coupled antibody was purified with a Zeba desalting column (ThermoFisher, Cat No. 89882). Cells overexpressing human CCR8, HEK293-hCCR8, were added to a V-bottom 96-well plate at a density of 1E5 cells/well and centrifuged at 300 g for 5 min, and the supernatant was discarded. The competitive antibody was serially diluted in a ratio of 1:10 from 200 nM to obtain 8 concentration points. The Biotin-antibody and the competition antibody were mixed in a 1:1 ratio on an HEK293 cell line overexpressing human CCR8 by the binding EC₈₀ concentration. The cells in the 96-well plate were resuspended and incubated at 4° C. for 1 h. The plate was washed twice with DPBS at 200 μL/well. The secondary antibody diluted in a 1:1000 ratio was added at 100 μL/well, and the mixture was incubated at 4° C. for 40 min. The plate was washed twice with DPBS at 200 μL/well. Finally, DPBS was […] at 200 μL/well to suspend the cells, and the mixture was loaded on an FACS machine for analysis.

Binder | IC50 (read off the curve) [nM]
B1 | 1 to 2
B2 | 1 to 2
B3 | 1 to 2

Molecular target: T1, human CCR8
Test: cell-based or functional assay

Binder | Bottom %, blocking of CCL1-stimulated calcium flux [%] | IC50(nM), blocking of CCL1-stimulated calcium flux [nM]
B1 | 7 | 1.51
B2 | 0 | 1.67
B3 | 0 | 1.44

Molecular target: T1, human CCR8
Test: FACS, CHO-K1-hCCR8 cells
Remark: another data set of the same source
Description: as §1

Binder | EC50 [nM]
B4 | 0.466
B1 | 2.54

Molecular target: T1, human CCR8
Test: FACS, HEK293-hCCR8 cells
Description: as §1

Binder | EC50 [nM]
B1 | 0.87
B2 | 0.79
B3 | 0.63

Molecular target: T1, human CCR8
Test: FACS, CHO-K1-hCCR8 cells, Fab
Description: as §1

Binder | EC50 [nM]
B5 | 1.56
B6 | 0.69
B7 | 0.62
B8 | 1.19
B9 | 1.1
B10 | 0.84
B11 | 0.74

Molecular target: T1, human CCR8
Test: FACS competition on HEK293-hCCR8 cells against a biotin-labelled anti-CCR8 antibody at its EC80; the labelled antibody of this panel is not named on the sheet
Remark: another data set of the same source
Description: as §2

Binder | IC50 (read off the curve) [nM]
B1 | ~3
B2 | ~3
B3 | ~3

Molecular target: T2, cynomolgus monkey CCR8 (cynomolgus monkey, UniProt G7NYJ2 1-355)
T2 construct: whole, on cells; also called CynoCCR8
Test: FACS, CHO-K1-CynoCCR8 cells
Description: as §1, with “cynomolgus monkey CCR8, CHO-K1-CynoCCR8,” for “human CCR8”

T2 sequence (G7NYJ2 entry or part of it): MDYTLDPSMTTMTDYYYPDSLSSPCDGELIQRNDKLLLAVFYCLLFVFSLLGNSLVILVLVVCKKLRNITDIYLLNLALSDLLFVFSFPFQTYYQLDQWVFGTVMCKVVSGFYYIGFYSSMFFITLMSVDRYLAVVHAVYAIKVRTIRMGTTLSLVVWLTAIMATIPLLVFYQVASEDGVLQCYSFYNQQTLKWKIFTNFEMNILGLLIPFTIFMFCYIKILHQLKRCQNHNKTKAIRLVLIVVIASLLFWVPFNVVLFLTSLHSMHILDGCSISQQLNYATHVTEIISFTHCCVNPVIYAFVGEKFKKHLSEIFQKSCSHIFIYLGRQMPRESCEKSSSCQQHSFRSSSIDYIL

Binder | EC50 [nM]
B1 | 4.73

Molecular target: T1, human CCR8
Test: FACS competition on HEK293-hCCR8 cells against a biotin-labelled anti-CCR8 antibody at its EC80; the labelled antibody of this panel is not named on the sheet
Remark: another data set of the same source
Description: as §2

Binder | IC50 (read off the curve) [nM]
B1 | ~2
B2 | ~2
B3 | ~2

Molecular target: T1, human CCR8
Test: as above
Remark: another data set of the same source
Description: as §2

Binder | IC50 (read off the curve) [nM]
B1 | ~2
B2 | ~2
B3 | ~2

Molecular target: T2, cynomolgus monkey CCR8
Test: FACS, CHO-K1-CynoCCR8 cells
Remark: another data set of the same source
Description: as §1, with “cynomolgus monkey CCR8, CHO-K1-CynoCCR8,” for “human CCR8”

Binder | EC50 [nM]
B1 | 2.26

Molecular target: T1, human CCR8
Test: FACS, Baf3-hCCR8 cells
Description: as §1

Binder | EC50 [nM]
B1 | 0.14
B2 | 0.2
B3 | 0.22

Molecular target: T2, cynomolgus monkey CCR8
Test: FACS, CHO-K1-CynoCCR8 cells
Remark: another data set of the same source
Description: as §1, with “cynomolgus monkey CCR8, CHO-K1-CynoCCR8,” for “human CCR8”

Binder | EC50 [nM]
B4 | 0.37
B1 | 0.83
B2 | 1.6

Molecular target: T1, human CCR8
Test: FACS, HEK293-hCCR8 cells
Remark: another data set of the same source
Description: as §1

Binder | EC50 [nM]
B1 | 4.53
B2 | 1.94
B12 | 0.98
B13 | 3.69
B3 | 0.9
B14 | 1.22

Molecular target: T1, human CCR8
Test: FACS competition on HEK293-hCCR8 cells against a biotin-labelled anti-CCR8 antibody at its EC80; the labelled antibody of this panel is not named on the sheet
Remark: another data set of the same source
Description: as §2

Binder | IC50 (read off the curve) [nM]
B1 | ~2
B2 | ~2
B3 | ~2

Molecular target: T1, human CCR8
Test: FACS, CHO-K1-hCCR8 cells
Remark: another data set of the same source
Summary of the method: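 Readout: FACS signal of cell-bound antibody. Staining used a 200 nM top concentration with 5-fold dilutions in 2% FBS buffer, 1 h at 4 °C, then secondary antibody for 40 min.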

Binder | EC50 [nM]
B4 | 0.44
B1 | 0.42
B2 | 0.52
B3 | 0.41

Molecular target: T1, human CCR8
Test: FACS, CHO-K1-hCCR8 cells
Remark: another data set of the same source
Description: as §1

Binder | EC50 [nM]
B1 | 0.55

Molecular target: T2, cynomolgus monkey CCR8
Test: FACS, CHO-K1-CynoCCR8 cells
Remark: another data set of the same source
Description: as §1, with “cynomolgus monkey CCR8, CHO-K1-CynoCCR8,” for “human CCR8”

Binder | EC50 [nM]
B1 | 7.39
B2 | 8.65
B12 | 3.32
B13 | 8.26
B14 | 3.42
